In data set [1] the test system is Saccharomyces cerevisiae. As to the kind of experiment: protein stability index of tFT-peptide fusion in wild type (PSI (0-1 scale)); higher = more stable (slower turnover). Particulars: genetic background: wild type. The procedure:
(§1)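 MPS profiling in S. cerevisiae of two library types built from selected 12-aa C-degron peptides (IN1, IN2, LN1, LN3, VN2, R1-R5, W1-W3, Atg1 and Rpa12 C-termini): saturation mutagenesis libraries and C-terminal +1 capping libraries (13 aa). Each peptide is fused to the C-terminus of a sfGFP-mCherry timer, after a GGGS linker. Cells are FACS-sorted into 8 mCherry/sfGFP bins and sequenced. PSI runs from 0 (unstable) to 1 (stable), measured once in wild type and in the das1Δ or doa10Δ background.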

Data set [2] has as its system Saccharomyces cerevisiae. As to the kind of experiment: protein stability index of tFT-peptide fusion in deletion strain of DAS1 (PSI (0-1 scale)); higher = more stable (slower turnover). The procedure: as §1
Data set [3] deals with Saccharomyces cerevisiae. As to the kind of experiment: protein stability index of tFT-peptide fusion (C-terminal peptide) (PSI (0-1 scale)); higher = more stable (slower turnover). The note with it: temperature: 30 C. The procedure: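 MPS profiling in S. cerevisiae of the yeast C-terminome library: the last 12 aa of each annotated ORF are fused to the C-terminus of a sfGFP-mCherry timer, after a GGGS linker. Cells are FACS-sorted into 8 mCherry/sfGFP bins and deep-sequenced. PSI runs from 0 (unstable) to 1 (stable); wild type and das1Δ backgrounds, two technical replicates each.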

The mark [4] stands for this setting: genetic background: das1 deletion.

For 26 sequences, protein stability index results are on record in the supplement of paper PMC10724198.

± gives the standard deviation of the averaged measurements.
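Throughout, for protein stability index of tFT-peptide fusion in deletion strain of DAS1: PSI is a weighted mean of each variant's read distribution over the sorted stability bins, computed only for variants having over 10 reads in total.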
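Throughout, for protein stability index of tFT-peptide fusion in wild type: PSI derived as read-weighted mean over the 8 sorting bins, only variants exceeding 10 total reads kept, mCherry placed adjacent to the peptide and sfGFP distal.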

On to AEWRVGLWRGAS, for which the protein stability index with Saccharomyces cerevisiae [1] worked out at 0.528; with Saccharomyces cerevisiae [2], 0.689.

As to AHWRVGLWRGAS, the figures for the protein stability index in the data set with Saccharomyces cerevisiae [1] and in the data set with Saccharomyces cerevisiae [2] were 0.43 and 0.688, respectively.

Regarding ARIRVGLWRGAS, the protein stability index amounted to 0.599 with Saccharomyces cerevisiae [1] and 0.686 in the data set with Saccharomyces cerevisiae [2].

Take ARRRVGLWRGAS: the protein stability index in the data set with Saccharomyces cerevisiae [1] was 0.538; in the data set with Saccharomyces cerevisiae [2], 0.723.

With ARWLVGLWRGAS, the protein stability index in the data set on Saccharomyces cerevisiae [1] worked out at 0.419; with Saccharomyces cerevisiae [2] it was 0.706.

ARWRDGLWRGAS: the protein stability index in the data set on Saccharomyces cerevisiae [1] was found to be 0.651; with Saccharomyces cerevisiae [2], 0.692.

For the sequence ARWRVELWRGAS, the protein stability index is 0.203 with Saccharomyces cerevisiae [1] and 0.665 with Saccharomyces cerevisiae [2].

As for ARWRVGAWRGAS, the figures for the protein stability index in the data set with Saccharomyces cerevisiae [1] and in the data set on Saccharomyces cerevisiae [2] were 0.427 and 0.688, respectively.

For VKTLANEILNII [ECM11 C-terminal 12 aa], the protein stability index in the data set with Saccharomyces cerevisiae [3] (setting [4]) was 0.6687 ± 0.0062; with Saccharomyces cerevisiae [3] (genetic background: wild type) it was 0.711 ± 0.0092.

VLLTILLFIQAY [SPO19 C-terminal 12 aa]: the values for the protein stability index in the data set with Saccharomyces cerevisiae [3] (setting [4]) and in the data set on Saccharomyces cerevisiae [3] (genetic background: wild type) were 0.1801 ± 0.0012 and 0.19 ± 0.0039, respectively.

Turning to VLMLETIAYLFS [NFG1 C-terminal 12 aa], the protein stability index in the data set with Saccharomyces cerevisiae [3] (setting [4]) stood at 0.487 ± 0.022; in the data set on Saccharomyces cerevisiae [3] (genetic background: wild type), 0.5059 ± 0.0015.

On to “VNNFKMFSNSSV [YIL115W-A C-terminal 12 aa]”, for which the values for the protein stability index with Saccharomyces cerevisiae [3] (setting [4]) and in the data set on Saccharomyces cerevisiae [3] (genetic background: wild type) were 0.704 ± 0.027 and 0.765 ± 0.045, respectively.

Regarding VPDIPPPPALVA [NUP42 C-terminal 12 aa], the protein stability index with Saccharomyces cerevisiae [3] (setting [4]) was found to be 0.632 ± 0.034; with Saccharomyces cerevisiae [3] (genetic background: wild type), 0.6989 ± 0.0048.

For the sequence VPEEQRIKRRKI [IRC4 C-terminal 12 aa], the protein stability index in the data set with Saccharomyces cerevisiae [3] (setting [4]) is 0.705 ± 0.037; in the data set with Saccharomyces cerevisiae [3] (genetic background: wild type) it was 0.3 ± 0.035.

Take VPKSLYGVTRTR [GAT3 C-terminal 12 aa]: the protein stability index in the data set with Saccharomyces cerevisiae [3] (setting [4]) came to 0.697 ± 0.008; in the data set on Saccharomyces cerevisiae [3] (genetic background: wild type), 0.686 ± 0.032.

On to VPYAKILDQCIL [YGL230C C-terminal 12 aa], for which the protein stability index in the data set on Saccharomyces cerevisiae [3] (setting [4]) stood at 0.693 ± 0.027; in the data set on Saccharomyces cerevisiae [3] (genetic background: wild type), 0.721 ± 0.021.

In the case of VQNLIAAVMGEL [PNP1 C-terminal 12 aa], the protein stability index in the data set on Saccharomyces cerevisiae [3] (setting [4]) is 0.7186 ± 0.002; in the data set with Saccharomyces cerevisiae [3] (genetic background: wild type), 0.664 ± 0.024.

As to VRADDLSTRFNI [RRP43 C-terminal 12 aa], the protein stability index in the data set with Saccharomyces cerevisiae [3] (setting [4]) turned out to be 0.657 ± 0.0082; with Saccharomyces cerevisiae [3] (genetic background: wild type), 0.664 ± 0.017.

Take VSIYKPYTEESE [WTM1 C-terminal 12 aa]: the protein stability index in the data set with Saccharomyces cerevisiae [3] (setting [4]) was determined as 0.662 ± 0.0069; with Saccharomyces cerevisiae [3] (genetic background: wild type), 0.663 ± 0.027.

As to VSPYDYNHKRVS [DIB1 C-terminal 12 aa], the protein stability index was found to be 0.69264 ± 0.00023 with Saccharomyces cerevisiae [3] (setting [4]) and 0.678 ± 0.035 in the data set on Saccharomyces cerevisiae [3] (genetic background: wild type).

VTRAAESLGFTV [MIP6 C-terminal 12 aa]: the protein stability index in the data set on Saccharomyces cerevisiae [3] (setting [4]) stood at 0.6997 ± 0.0036; in the data set on Saccharomyces cerevisiae [3] (genetic background: wild type), 0.69562 ± 4.2e-05.

With VVAQKPKLPYTK [YBR225W C-terminal 12 aa], the protein stability index in the data set on Saccharomyces cerevisiae [3] (setting [4]) is 0.694 ± 0.026; with Saccharomyces cerevisiae [3] (genetic background: wild type), 0.725 ± 0.066.

For VVNKYLKENGYY [APE2 C-terminal 12 aa], the figures for the protein stability index in the data set on Saccharomyces cerevisiae [3] (setting [4]) and in the data set with Saccharomyces cerevisiae [3] (genetic background: wild type) were 0.705 ± 0.02 and 0.6615 ± 0.0031, respectively.

VVVTGNLQILEH [UGP1 C-terminal 12 aa]: the values for the protein stability index in the data set with Saccharomyces cerevisiae [3] (setting [4]) and with Saccharomyces cerevisiae [3] (genetic background: wild type) were 0.678 ± 0.03 and 0.684 ± 0.019, respectively.

For VYARDAAALRPV [SCS3 C-terminal 12 aa], the protein stability index in the data set on Saccharomyces cerevisiae [3] (setting [4]) was 0.716 ± 0.021; in the data set with Saccharomyces cerevisiae [3] (genetic background: wild type) it was 0.686 ± 0.03.

VYEVVCDSVRNW [MRX21 C-terminal 12 aa]: the protein stability index was determined as 0.692 ± 0.023 with Saccharomyces cerevisiae [3] (setting [4]) and 0.717 ± 0.0011 with Saccharomyces cerevisiae [3] (genetic background: wild type).
